Data set [1] is described as follows: pharmacokinetics in SD rats, sandwich ELISA (Example 15). The format is in vivo, SD (Sprague-Dawley) rats. To be noted: intraperitoneal, 5 nmol/kg. On the procedure:
To evaluate the pharmacokinetics profiles for the GLP-1 containing fusion proteins generated using the method of the invention, we purified the recombinant fusion proteins of GLP-1-Fn8-COL18NC1, GLP1(A8G/G22E/R36G)-Fn8-p246-COL18NC1 and GLP1(A8G/G22E/R36G)-Fn8-p285-COL18NC1 in PBS buffer, pH 7.2. These fusion proteins were administered into SD (Sprague-Dawley) rats by intraperitoneal injections at the dose of 5 nmol/kg for animals, respectively. Blood samples were taken at various time points after injections such as 0-min, 30-min, 1-hour, 2-hour, 4-hour, 6-hour, 8-hour, 24-hour, 48-hour, 3-day, 4-day, 5-day, 6-day and 7-day. The serum samples were centrifuged and kept at −80° C. freezer.
(§1) The GLP-1 concentrations within the samples were examined by use of the sandwich ELISA method. The rabbit polyclonal antibody against human Fibronectin at the concentration of 3 ug/ml (Ab299, Abcam company) was coated on ELISA plate for 1 hour at room temperature. Then the plate was washed by PBST buffer three times and the wells were blocked by PBS with 10% FBS for 1 hour at room temperature. The plate was washed three times before the serum samples containing GLP-1 fusion proteins were added. The serum samples could be diluted to 20-10000 folds before use. The ELISA plate was incubated with the serum samples at room temperature for 1 hour and then washed by PBST buffer five times. Then mouse monoclonal against human GLP-1 peptide antibody (sc57510, Santa Cruz Biotechnology) at the concentration of 1 ug/ml in PBST buffer was added to the wells. The plate was washed extensively after incubation of 1 hour at room temperature. The secondary antibody, […] HRP conjugated antibody (Beijing ZSGB-Bio company, ZB 5301), was added into the wells and the color was developed using TMB (3,3′,5,5′-tetramethylbenzidine, BD Biosciences, Cat 555214). The plate reader (Bio-Rad microplate reader Model 680) was utilized to obtain the OD450 readings. This method has been calibrated using purified proteins first.
The pharmacokinetics parameters were obtained by using the WinNonlin software (Table 5).

A short description of data set [2]: analytical gel filtration (Superdex200), apparent molecular weight. It is filed as physicochemical. An excerpt: In the fusion protein of GLP-1(A8G/G22E)-Fn8-COL18NC1 described in example 4, the flexible unstructured linker between Fn8 and COL18NC1 contains six residues (GGGSGG; SEQ ID NO:89). To generate the flexible un-structured linkers with different lengths, we have synthesized the genes GLP-1(A8G/G22E/R36S)-Fn8-COL18NC1-20, GLP-1(A8G/G22E/R36S)-Fn8-COL18NC1-30, GLP-1(A8G/G22E/R36S)-Fn8-COL18NC1-54 and GLP-1(A8G/G22E/R36S)-Fn8-COL18NC1-60. In these genes, the length of the flexible unstructured polypeptide linker between Fn8 and COL18NC1 contained 20, 30, 54 and 60 residues, respectively. The protein sequences of GLP-1(A8G/G22E/R36S)-Fn8-COL18NC1-20, GLP-1(A8G/G22E/R36S)-Fn8-COL18NC1-30, GLP-1(A8G/G22E/R36S)-Fn8-COL18NC1-54 and GLP-1(A8G/G22E/R36S)-Fn8-COL18NC1-60 are listed as SEQ ID NO:8-11. The synthetic genes of GLP-1(A8G/G22E/R36S)-Fn8-COL18NC1-20, GLP-1(A8G/G22E/R36S)-Fn8-COL18NC1-30, GLP-1(A8G/G22E/R36S)-Fn8-COL18NC1-54 and GLP-1(A8G/G22E/R36S)-Fn8-COL18NC1-60 were grafted to the pET29b by NdeI and XhoI for protein expressions. The expression and purification of these fusion proteins were carried out using similar protocols described in example 3. To estimate the hydrodynamic radius and/or the Rg of the fusion proteins, the purified proteins were loaded on an analytical gel filtration column Superdex200 (GE Healthcare).
Moreover, the flexible unstructured linker between the therapeutic polypeptide and the scaffold protein may adjust the hydrodynamic radius and/or the Rg of the fusion molecule in a tunable manner.
The apparent molecular weights of the fusion proteins were estimated by use of an analytical gel filtration column Superdex-200 (GE Healthcare) mounted on the AKTA FPLC system (GE Healthcare). The purified fusion proteins GLP-1-Fn8, GLP-1-Fn8-COL18NC1, GLP-1(A8G/G22E/R36G)-Fn8-p246-COL18NC1 were loaded on the Superdex200 column. GLP-1-Fn8 is a fusion protein of GLP-1 and Fn8 and contains the first 144 amino acid residues of the fusion protein GLP-1-Fn8-COL18NC1 (SEQ ID NO:2). […] The genuine molecular weights for the fusion proteins GLP-1-Fn8 monomer, GLP-1-Fn8-COL18NC1 trimer, and GLP-1(A8G/G22E/R36G)-Fn8-p246-COL18NC1 trimer were ˜15 Kd, 65 Kd and 123Kd, respectively.

In data set [3] the target is human GLP-1 receptor (GLP-1R) (human, UniProt P43220 24-463). In words: cell-based or functional assay.
The nature of data set [4]: pharmacokinetics in Sprague-Dawley rats, sandwich ELISA (Example 6). To be noted: Sprague-Dawley rat, intraperitoneal, 0.66/0.72/0.75/0.78 mg/kg respectively. The format is in vivo. How it is done: To evaluate the pharmacokinetics profiles for the GLP-1 containing fusion proteins generated using the method of the invention, we purified GLP-1(A8G/G22E/R36S)-Fn8-COL18NC1, GLP-1(A8G/G22E/R36S)-Fn8-COL18NC1-20, GLP-1(A8G/G22E/R36S)-Fn8-COL18NC1-30, GLP-1(A8G/G22E/R36S)-Fn8-COL18NC1-54 in PBS buffer, pH 7.2. These fusion proteins were administered on Sprague-Dawley (SD) rats by intraperitoneal injections at the doses of 0.66 mg/kg, 0.72 mg/kg, 0.75 mg/kg, 0.78 mg/kg animal respectively. Blood samples were taken at various time points after injections such as 0-min, 30-min, 1-hour, 2-hour, 4-hour, 8-hour, 24-hour, 48-hour, 3-day, 4-day, 5-day. 7-day, 10-day. The serum samples were centrifuged and kept at −80° C. freezer.
as §1, with “within the serum samples were” for “within the samples were”, “Santa Cruz Biotechology) at the” for “Santa Cruz Biotechnology) at the”
The pharmacokinetics parameters were obtained by using the WinNonlin software (Table 3).

B1: GLP1(A8G/G22E/R36G)-Fn8-p285-COL18NC1: fusion with Fn8, pCloud p285 and COL18NC1; SEQ ID NO: 23 (protein)
chain: HGEGTFTSDVSSYLEEQAAKEFIAWLVKGGGSGGGSGGGSGGGSGGGSGSGGAVPPPTDLRFTNIGPDTMRVTWAPPPSIDLTNFLVRYSPVKNEEDVAELSISPSDNAVVLTNLLPGTEYVVSVSSVYEQHESTPLRGRQKTGGGGSGGGSGSGSESGSGGGSTSSGTGSETESPGSGSESGSGPSSAGSGSGSESGSGSGSSGPGSTGGSGSESGSGPGSSGTGGTATGSGSESGSGPGSSGPGSTGSGSGSESGSGSGSSGTGSTGGSGSESGSGPGSPRPGSTGTGSGSESGSGPGSSERGSAGGSGSESGSGTSESSASGSTGGSGSESGSGSESGSGSGSESGSGPESPGSGGSGSESGSGTSGSTGSGSESGSGPGSSGPGSTGSGSGSESGSGSGSSGTGSTGGSGSESGSGGGSGGGSGGGASSGVRLWATRQAMLGQVHEVPEGWLIFVAEQEELYVRVQNGFRKVQLEARTPLPRG
For the molecule B1, in data set [1] (Rats), the AUCall worked out at 475.3 µg·h/mL, the CL/F was determined as 1.37 mL/h/kg, the maximum concentration (Cmax) was determined as 7.98 µg/mL and the T½ turned out to be 31.2 h. In data set [1] (Rats), this molecule came in with a Vss of 62.0 mL/kg. Also, the half life in data set [1] (SD rats) is 31.2 h.

B2: GLP-1(A8G/G22E/R36S)-Fn8-COL18NC1-60 (ligand)
chain: HGEGTFTSDVSSYLEEQAAKEFIAWLVKGSGGGGSGGAVPPPTDLRFTNIGPDTMRVTWAPPPSIDLTNFLVRYSPVKNEEDVAELSISPSDNAVVLTNLLPGTEYVVSVSSVYEQHESTPLRGRQKTGGGGSGGGSGGGSTASSASTKGPSGGGSGGGSGGGSAPSSKSTSGGTAAGGGSGGGSGGGSGASSGVRLWATRQAMLGQVHEVPEGWLIFVAEQEELYVRVQNGFRKVQLEARTPLPRG
As to B2, the apparent molecular weight in data set [2] was roughly 200 Kd. Further, the “EC50 (nM) measured by cAMP assay” value in data set [3] was found to be 0.5 nM.

B3: GLP-1(A8G/G22E/R36S)-Fn8-COL18NC1-30 (ligand)
chain: HGEGTFTSDVSSYLEEQAAKEFIAWLVKGSGGGGSGGAVPPPTDLRFTNIGPDTMRVTWAPPPSIDLTNFLVRYSPVKNEEDVAELSISPSDNAVVLTNLLPGTEYVVSVSSVYEQHESTPLRGRQKTGGGGGSGGGGSASSASTGGPSGGGGSGGGGSGASSGVRLWATRQAMLGQVHEVPEGWLIFVAEQEELYVRVQNGFRKVQLEARTPLPRG
Regarding B3, in data set [4], the “AUC(0-t)” value amounted to 47.58 µg·h/mL, the AUCinf amounted to 47.6 µg·h/mL, the CL is 46.04 mL/h/kg and the Cmax was 2.15 µg/mL. In data set [4], this molecule showed a T½ of 7.22 h and a V of 479.81 mL/kg. Also, the apparent molecular weight result in data set [2] is “larger apparent molecular weight than their genuine molecular weight”. Moreover, the “EC50 (nM) measured by cAMP assay” value in data set [3] amounted to 1.3 nM.

B4: GLP-1(A8G/G22E/R36S)-Fn8-COL18NC1 (ligand)
chain: HGEGTFTSDVSSYLEEQAAKEFIAWLVKGSGGGGSGGGGSAVPPPTDLRFTNIGPDTMRVTWAPPPSIDLTNFLVRYSPVKNEEDVAELSISPSDNAVVLTNLLPGTEYVVSVSSVYEQHESTPLRGRQKTGGGGSGGGASSGVRLWATRQAMLGQVHEVPEGWLIFVAEQEELYVRVQNGFRKVQLEARTPLPRG
For B4, the apparent molecular weight in data set [2] is recorded as roughly 100 Kd. Also, the “EC50 (nM) measured by cAMP assay” value in data set [3] came to 1.3 nM.

B5: GLP-1-Fn8: fusion protein of GLP-1 and Fn8, first 144 residues of SEQ ID NO:2; monomer in solution (protein)
chain: HAEGTFTSDVSSYLEGQAAKEFIAWLVKGRGGGGSGGGGSAVPPPTDLRFTNIGPDTMRVTWAPPPSIDLTNFLVRYSPVKNEEDVAELSISPSDNAVVLTNLLPGTEYVVSVSSVYEQHESTPLRGRQKTGGGGSGGGASSGV
Regarding B5, the apparent molecular weight in data set [2] is given as roughly 20 Kd.

B6: GLP-1(A8G/G22E/R36S)-Fn8-COL18NC1-54 (ligand)
chain: HGEGTFTSDVSSYLEEQAAKEFIAWLVKGSGGGGSGGAVPPPTDLRFTNIGPDTMRVTWAPPPSIDLTNFLVRYSPVKNEEDVAELSISPSDNAVVLTNLLPGTEYVVSVSSVYEQHESTPLRGRQKTGGGGGSGGGGSTASSASTGGPSGGGGSGGGGSAPSSGSTSGGTAAGGGGSGGGGSGASSGVRLWATRQAMLGQVHEVPEGWLIFVAEQEELYVRVQNGFRKVQLEARTPLPRG
Take B6: in data set [4], the “AUC(0-t)” value was found to be 86.64 µg·h/mL, the AUCinf was found to be 86.67 µg·h/mL, the CL is 27.06 mL/h/kg and the Cmax is 2.64 µg/mL. In data set [4], this molecule came in with a T½ of 9.10 h and a V of 350.86 mL/kg. The apparent molecular weight in data set [2] was roughly 200 Kd. For the same molecule, the “EC50 (nM) measured by cAMP assay” value in data set [3] was found to be 0.5 nM.
